Data from article PMC12022309, “A facultative plasminogen-independent thrombolytic enzyme from Sipunculus nudus” (Nature Communications, 2025).
pKd: −log10 of the molar value.

Key:
snFPITE-n1 (snFPITE) = biological target: T1, snFPITE-n1 (snFPITE) (Phascolopsis gouldii, UniProt Z9UHO8WHJ2); assay: inhibition of fibrin lysis or plasminogen activation, SDS-PAGE; format: biochemical; details: 2.5 mM, 30 min pre-incubation; purified native snFPITE (called snFPITE-n1); enzyme also purified on Arg-Sepharose 4B
T1 construct: native, purified from S. nudus intestine / intestinal fluid by chromatography
T1 sequence (Z9UHO8WHJ2 1-239): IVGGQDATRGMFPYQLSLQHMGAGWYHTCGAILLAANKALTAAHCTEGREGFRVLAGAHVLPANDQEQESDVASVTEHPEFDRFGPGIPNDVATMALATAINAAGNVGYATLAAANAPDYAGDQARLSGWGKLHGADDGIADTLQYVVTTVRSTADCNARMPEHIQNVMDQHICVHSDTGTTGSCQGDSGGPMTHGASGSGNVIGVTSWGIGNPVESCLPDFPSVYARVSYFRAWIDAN

[1] = biological target: plasminogen, biotin-labeled (human); assay: BLI; GatorPrime (GatorPivot in the results), streptavidin (SA-XT) biosensors; biotin-labeled plasminogen or fibrinogen immobilised, snFPITE in solution; 30 °C, 1000 rpm; association 2–3 min, dissociation 2–5 min
[2] = biological target: fibrinogen, biotin-labeled (UniProt P02671); assay: as above
Chain of fibrinogen, biotin-labeled (P02671 36-866, chain 1 of 3): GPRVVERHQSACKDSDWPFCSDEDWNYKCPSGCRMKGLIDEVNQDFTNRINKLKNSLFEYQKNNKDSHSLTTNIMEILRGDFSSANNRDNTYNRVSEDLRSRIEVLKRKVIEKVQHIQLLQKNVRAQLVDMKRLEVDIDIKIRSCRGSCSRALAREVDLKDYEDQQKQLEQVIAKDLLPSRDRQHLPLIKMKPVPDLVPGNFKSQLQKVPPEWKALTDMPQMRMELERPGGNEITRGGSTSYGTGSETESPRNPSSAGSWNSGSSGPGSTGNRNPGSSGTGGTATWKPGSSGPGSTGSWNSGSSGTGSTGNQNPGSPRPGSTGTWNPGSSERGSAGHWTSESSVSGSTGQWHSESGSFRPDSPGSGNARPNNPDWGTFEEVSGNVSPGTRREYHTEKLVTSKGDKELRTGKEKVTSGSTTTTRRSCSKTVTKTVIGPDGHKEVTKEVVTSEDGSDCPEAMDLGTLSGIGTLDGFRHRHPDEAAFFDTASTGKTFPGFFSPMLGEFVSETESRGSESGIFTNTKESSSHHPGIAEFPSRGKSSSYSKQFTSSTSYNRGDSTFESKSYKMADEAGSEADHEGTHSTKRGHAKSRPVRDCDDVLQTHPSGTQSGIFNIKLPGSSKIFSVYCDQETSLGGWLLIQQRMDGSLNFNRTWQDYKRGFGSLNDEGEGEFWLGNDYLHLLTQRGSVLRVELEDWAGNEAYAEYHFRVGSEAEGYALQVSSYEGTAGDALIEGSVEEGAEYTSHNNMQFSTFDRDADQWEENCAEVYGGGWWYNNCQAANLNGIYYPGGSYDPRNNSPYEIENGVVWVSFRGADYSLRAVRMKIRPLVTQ
Chain of fibrinogen, biotin-labeled (P02675 45-491, chain 2 of 3, further chain): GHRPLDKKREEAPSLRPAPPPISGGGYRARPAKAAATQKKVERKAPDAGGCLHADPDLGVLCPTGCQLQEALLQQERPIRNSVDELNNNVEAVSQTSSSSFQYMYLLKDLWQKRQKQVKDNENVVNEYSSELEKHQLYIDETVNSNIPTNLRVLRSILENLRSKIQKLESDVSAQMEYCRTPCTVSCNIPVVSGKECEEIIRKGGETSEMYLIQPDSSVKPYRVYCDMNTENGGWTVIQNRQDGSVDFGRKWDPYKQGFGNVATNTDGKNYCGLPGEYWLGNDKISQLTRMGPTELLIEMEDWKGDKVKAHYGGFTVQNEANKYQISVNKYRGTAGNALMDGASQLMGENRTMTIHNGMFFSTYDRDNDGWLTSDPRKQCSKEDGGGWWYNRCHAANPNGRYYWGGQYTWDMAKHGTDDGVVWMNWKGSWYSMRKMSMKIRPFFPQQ
Chain of fibrinogen, biotin-labeled (P02679 27-453, chain 3 of 3, further chain): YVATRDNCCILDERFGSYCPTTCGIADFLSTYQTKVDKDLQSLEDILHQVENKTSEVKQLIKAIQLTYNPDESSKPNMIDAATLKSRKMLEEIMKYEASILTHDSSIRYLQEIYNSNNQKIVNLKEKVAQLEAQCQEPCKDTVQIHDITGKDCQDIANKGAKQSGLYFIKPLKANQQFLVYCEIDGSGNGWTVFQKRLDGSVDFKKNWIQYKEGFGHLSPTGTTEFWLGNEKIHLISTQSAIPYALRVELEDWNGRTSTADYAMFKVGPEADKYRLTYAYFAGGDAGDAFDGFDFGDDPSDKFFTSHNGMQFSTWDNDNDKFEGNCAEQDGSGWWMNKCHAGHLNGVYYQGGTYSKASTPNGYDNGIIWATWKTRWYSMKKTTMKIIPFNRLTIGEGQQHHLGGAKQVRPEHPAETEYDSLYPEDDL

Compound: N=C(N)NCCC[C@H](N)C(=O)O [arginine]
- inhibition of fibrin lysis or plasminogen activation, SDS-PAGE (snFPITE-n1 (snFPITE)): Lys or Arg inhibited snFPITE-n1

Compound: small facultative plasminogen-independent thrombolytic enzyme (snFPITE) from Sipunculus nudus
- pKd [1]: 7.26
- pKd [2]: 9.88
